Laboratory results from the supplement of paper PMC11246515.
± gives the standard deviation of the averaged measurements.

Experiment: total protein half-life in vivo (active degradation + dilution); higher = more stable protein
[1] = E. coli NCM3722 delta-clpP delta-lon delta-hslV, growth: N-lim chemostat, doubling time 6 h
[2] = E. coli NCM3722 delta-clpP, growth: N-lim chemostat, doubling time 6 h
[3] = E. coli NCM3722 delta-hslV, growth: N-lim chemostat, doubling time 6 h
[4] = E. coli NCM3722 delta-lon, growth: N-lim chemostat, doubling time 6 h
[5] = E. coli NCM3722 delta-smpB, growth: N-lim chemostat, doubling time 6 h
[6] = wild type E. coli NCM3722, growth: C-lim chemostat, doubling time 3 h
[7] = wild type E. coli NCM3722, growth: C-lim chemostat, doubling time 6 h
[8] = wild type E. coli NCM3722, growth: C-lim chemostat, doubling time 12 h
[9] = wild type E. coli NCM3722, growth: N-lim chemostat, doubling time 6 h
[10] = wild type E. coli NCM3722, growth: N-lim chemostat, doubling time 12 h
[11] = wild type E. coli NCM3722, growth: P-lim chemostat, doubling time 6 h
[12] = wild type E. coli NCM3722, growth: P-lim chemostat, doubling time 12 h

Sequence | total protein half-life in vivo [1] | total protein half-life in vivo [2] | total protein half-life in vivo [3] | total protein half-life in vivo [4] | total protein half-life in vivo [5] | total protein half-life in vivo [6] | total protein half-life in vivo [7] | total protein half-life in vivo [8] | total protein half-life in vivo [9] | total protein half-life in vivo [10] | total protein half-life in vivo [11] | total protein half-life in vivo [12]
MKILVDENMPYARDLFSRLGEVTAVPGRPIPVAQLADADALMVRSVTKVNESLLAGKPIKFVGTATAGTDHVDEAWLKQAGIGFSAAPGCNAIAVVEYVFSSLLMLAERDGFSLYDRTVGIVGVGNVGRRLQARLEALGIKTLLCDPPRADRGDEGDFRSLDELVQRADILTFHTPLFKDGPYKTLHLADEKLIRSLKPGAILINACRGAVVDNTALLTCLNEGQKLSVVLDVWEGEPELNVELLKKVDIGTSHIAGYTLEGKARGTTQVFEAYSKFIGHEQHVALDTLLPAPEFGRITLHGPLDQPTLKRLVHLVYDVRRDDAPLRKVAGIPGEFDKLRKNYLERREWSSLYVICDDASAASLLCKLGFNAVHHPAR | 5.83 ± 1.3 h | 5.47 ± 1.3 h | 5.17 ± 0.28 h | 5.42 ± 0.064 h | 4.62 ± 0.18 h | 3 ± 0.38 h | 5.58 ± 0.23 h | 12.6 ± 3.2 h | 4.72 ± 0.047 h | 8.268 ± 0.016 h | 5.71 ± 0.38 h | 11.1 ± 0.13 h
MKILVTGGAGFIGSAVVRHIINNTQDSVVNVDKLTYAGNRESLADVSDSERYVFEHADICDAPAMARIFAQHQPDAVMHLAAESHVDRSITGPAAFIETNIVGTYVLLEAARNYWSALDSDKKNSFRFHHISTDEVYGDLPHPDEVNNTEELPLFTETTAYAPSSPYSASKASSDHLVRAWKRTYGLPTIVTNCSNNYGPYHFPEKLIPLVILNALEGKALPIYGKGDQIRDWLYVEDHARALYTVVTEGKAGETYNIGGHNEKKNIDVVLTICDLLDEIVPKEKSYREQITYVADRPGHDRRYAIDAEKIGRALGWKPQETFESGIRKTVEWYLSNTKWVDNVKSGAYQSWIEQNYEGRQ | 5.58 h | – | 5.31 h | – | – | – | – | – | 5.85 h | – | 7.66 h | –
MKINQPAVAGTLESGDVMIRIAPLDTQDIDLQINSSVEKQFGDAIRTTILDVLARYNVRGVQLNVDDKGALDCILRARLEALLARASGIPALPWEDCQ | – | – | – | – | 1.09 h | – | – | – | – | – | – | –
MKIRSLSRFVLASTMFASFTASAVPGLWQQGYGQGNAEYSVTDASGKMFTINCTGNPDQNGIYQHSVFLILAGDKTVSSHDDSTGITVVMDHKQYAIPSTLGWRNGDNAWFSFIMDIRKARQFDVYVNDQKVGSFNPDVRNAQKVLPTLADCTND | – | – | – | – | – | 1.45 h | – | – | – | – | – | –
MKISRLGEAPDYRFSLANERTFLAWIRTALGFLAAGVGLDQLAPDFATPVIRELLALLLCLFSGGLAMYGYLRWLRNEKAMRLKEDLPYTNSLLIISLILMVVAVIVMGLVLYAG [P0ADM0] | – | – | – | – | – | – | 5.742 ± 0.053 h | > 16 h | 5.98 h | – | 5.91 h | 5 h
MKITVLGCGALGQLWLTALCKQGHEVQGWLRVPQPYCSVNLVETDGSIFNESLTANDPDFLATSDLLLVTLKAWQVSDAVKSLASTLPVTTPILLIHNGMGTIEELQNIQQPLLMGTTTHAARRDGNVIIHVANGITHIGPARQQDGDYSYLADILQTVLPDVAWHNNIRAELWRKLAVNCVINPLTAIWNCPNGELRHHPQEIMQICEEVAAVIEREGHHTSAEDLRDYVMQVIDATAENISSMLQDIRALRHTEIDYINGFLLRRARAHGIAVPENTRLFEMVKRKESEYERIGTGLPRPW [P0A9J4] | – | – | – | 3.4 h | 3.22 ± 0.64 h | – | – | 4.51 h | 3.03 h | – | 5.73 ± 0.2 h | –
MKIVEVKHPLVKHKLGLMREQDISTKRFRELASEVGSLLTYEATADLETEKVTIEGWNGPVEIDQIKGKKITVVPILRAGLGMMDGVLENVPSARISVVGMYRNEETLEPVPYFQKLVSNIDERMALIVDPMLATGGSVIATIDLLKKAGCSSIKVLVLVAAPEGIAALEKAHPDVELYTASIDQGLNEHGYIIPGLGDAGDKIFGTK [P0A8F0] | 5.6625 ± 0.0038 h | 5.17 ± 0.33 h | 5.83 ± 0.94 h | 5.36 ± 0.61 h | 5.3 ± 0.15 h | 3.05 ± 0.29 h | 5.86 ± 0.36 h | 10.9 ± 1.4 h | 5.71 ± 0.23 h | 12.1 ± 2.8 h | 6.55 ± 0.34 h | 11.3 ± 0.98 h
MKIVIAPDSFKESLSAEKCCQAIKAGFSTLFPDANYICLPIADGGEGTVDAMVAATGGNIVTLEVCGPMGEKVNAFYGLTGDGKTAVIEMAAASGLMLVAPEKRNPLLASSFGTGELIRHALDNDIRHIILGIGGSATVDGGMGMAQALGVRFLDADGQALAANGGNLARVASIEMDECDPRLANCHIEVACDVDNPLVGARGAAAVFGPQKGATPEMVEELEQGLQNYARVLQQQTEINVCQMAGGGAAGGMGIAAAVFLNADIKPGIEIVLNAVNLAQAVQGAALVITGEGRIDSQTAGGKAPLGVASVAKQFNVPVIGIAGVLGDGVEVVHQYGIDAVFSILPRLAPLAEVLASGETNLFNSARNIACAIKIGQGIKN | 4.41 ± 0.66 h | 4.58 ± 0.6 h | 4.47 ± 0.077 h | 4.62 ± 0.21 h | 4.3 ± 0.45 h | 3.05 ± 0.13 h | 4.82 ± 0.53 h | 10.4 ± 1.2 h | 5.7 ± 1.2 h | 8.201 ± 0.034 h | 5.05 ± 0.15 h | 9.23 ± 0.27 h
MKKAIAYMRFSSPGQMSGDSLNRQRRLIAEWLKVNSDYYLDTITYEDLGLSAFKGKHAQSGAFSEFLDAIEHGYILPGTTLLVESLDRLSREKVGEAIERLKLILNHGIDVITLCDNTVYNIDSLNEPYSLIKAILIAQRANEESEIKSSRVKLSWKKKRQDALESGTIMTASCPRWLSLDDKRTAFVPDPDRVKTIELIFKLRMERRSLNAIAKYLNDHAVKNFSGKESAWGPSVIEKLLANKALIGICVPSYRARGKGISEIAGYYPRVISDDLFYAVQEIRLAPFGISNSSKNPMLINLLRTVMKCEACGNTMIVHAVSGSLHGYYVCPMRRLHRCDRPSIKRDLVDYNIINELLFNCSKIQPVENKKDANETLELKIIELQMKINNLIVALSVAPEVTAIAEKIRLLDKELRRASVSLKTLKSKGVNSFSDFYAIDLTSKNGRELCRTLAYKTFEKIIINTDNKTCDIYFMNGIVFKHYPLMKVISAQQAISALKYMVDGEIYF | > 8 h | 1.49 h | – | – | – | 1.41 h | – | 1.97 h | – | 14 h | – | –
MKKAKILSGVLLLCFSSPLISQAATLDVRGGYRSGSHAYETRLKVSEGWQNGWWASMESNTWNTIHDNKKENAALNDVQVEVNYAIKLDDQWTVRPGMLTHFSSNGTRYGPYVKLSWDATKDLNFGIRYRYDWKAYRQQDLSGDMSRDNVHRWDGYVTYHINSDFTFAWQTTLYSKQNDYRYANHKKWATENAFVLQYHMTPDITPYIEYDYLDRQGVYNGRDNLSENSYRIGVSFKL | 4.55 h | – | – | – | – | 3.093 ± 0.0091 h | 6.86 ± 1.1 h | – | – | – | – | –
MKKGFMLFTLLAAFSGFAQADDAAIQQTLAKMGIKSSDIQPAPVAGMKTVLTNSGVLYITDDGKHIIQGPMYDVSGTAPVNVTNKMLLKQLNALEKEMIVYKAPQEKHVITVFTDITCGYCHKLHEQMADYNALGITVRYLAFPRQGLDSDAEKEMKAIWCAKDKNKAFDDVMAGKSVAPASCDVDIADHYALGVQLGVSGTPAVVLSNGTLVPGYQPPKEMKEFLDEHQKMTSGK [P0AEG6] | 5.41 ± 0.26 h | 5.77 ± 0.5 h | 6.69 ± 0.64 h | 6.3 ± 0.28 h | 6.38 ± 0.49 h | 3.31 ± 0.52 h | 5.7 ± 0.21 h | 10.8 ± 1.6 h | 5.8 ± 0.27 h | 13.1 ± 2 h | 5.93 ± 1.2 h | 13.2 ± 0.74 h
